This is an account of results in US20190106510A1 (CELLDEX THERAPEUTICS, published 2019).

Assay [1] concerns the target T1, full-length, wild-type human KIT expressed on CHO cells (human, UniProt P10721 26-976). As to the kind of experiment: cell-based or functional assay.
In assay [2] the target is T1, full-length, wild-type human KIT …. As to the kind of experiment: flow cytometry on CHO cells expressing full-length wild-type human KIT (FIG. 6). How it is done:
Briefly, parental CHO cells and CHO/KIT-WT cells were washed and incubated with 0.01 nM, 0.1 nM, 1 nM or 10 nM of a chimeric (human-mouse) 37M antibody, antibody Hum17, Hum8, Hum4, or Hum10, a negative control isotype IgG antibody, or a commercial anti-KIT antibody as a positive control. The samples were processed for flow cytometry analysis. More specifically, cells were removed from the culture flasks using EDTA, and washed with PBS. Then, the cells were resuspended in media and counted. Each sample containing approximately 200,000 to 250,000 cells was spun, the media was removed, and the cells were resuspended in FC buffer (1% BSA, 0.01% sodium azide in 1×PBS) for the blocking step. The cells were incubated in FC buffer for 1 hour on ice. Then, primary antibody (e.g., a chimeric (human-mouse) 37M antibody, Hum17, Hum8, Hum4, Hum10, positive control anti-KIT antibody, or negative control antibody) was added to the cells in FC buffer as described above. The samples were mixed and incubated on ice for 1 hour, followed by washing the cells with 0.5-1 mL FC buffer. The FC buffer was removed by spinning the cells at 1200 rpm for 3 minutes at 4° C., decanting the liquid. The cell pellets were resuspended in 200 μL FC buffer, and secondary antibody (DyLight 488 AffiniPure Goat Anti-Mouse IgG Jackson Laboratories) was added to the cells at a 1:1000 to 1:2000 dilution. The samples were mixed and incubated on ice for 1 hour, and then washed as described above. The samples were run on a fluorescence activated cell sorter (FACS) machine (Accuri FlowCytometer C6). Samples were analyzed by following channel FLA-1 for DyLight-conjugated samples.

The target in assay [3] is T2, recombinant KIT D4/D5 (human, UniProt P10721 26-519).
T2 construct: also called recombinant c-Kit Ig-like domains D4/D5; recombinant polypeptide of the D4/D5 region of human KIT
As to the kind of experiment: solid phase ELISA, plate-adsorbed recombinant D4/D5 region of human KIT (FIG. 5). How it is done:
Recombinant antigen corresponding to the D4/D5 region of the KIT extracellular domain (see FIG. 2) was absorbed onto 96-well microtiter plates. In particular, recombinant antigen (5 μg) were diluted into 10 mL of borate buffer, and 100 μL of the antigen solution were added to each well of a 96 well plate and were incubated at 4° C. overnight.
ELISA: Following one rinse with TBS-T, blocking buffer (200 μL) was added to each well of the plate with the adsorbed antigen and was incubate at room temperature for one hour. Then, the blocking buffer was removed, and the serially diluted solutions of test antibodies and controls were added to the plate in a volume of 50 μL and incubated at room temperature for one hour. The antibody solutions were removed, and the plate was washed three times with 100 μL of wash buffer on a plate washer. After the last wash, the plate was blotted dry. Secondary antibody solution was diluted 1:8000 and was added to each well in a volume of 100 μL and allowed to incubate for one hour at room temperature. The diluted secondary antibody solution was removed, and the plate was washed three times with 100 μL of wash buffer on a plate washer. Then, freshly mixed TMB substrate solution was added to each well in a volume of 100 μL and was allowed to incubate at room temperature for 30 minutes. Subsequently, 100 μL of 2N H₂SO₄ were added to each well and immediately read on the plate reader. An irrelevant antibody served as the negative control, and an anti-KIT antibody against the D4 and/or D5 domain of the extracellular region of KIT served as the positive control. OD values for each sample were obtained at a wavelength of 450 nm.
Results were analyzed using Graph Pad Prism and Excel to obtain the concentration of antibodies at 50% binding to antigen.

The target of assay [4] is T2, recombinant KIT D4/D5. Kind of assay: direct binding ELISA, plate-coated recombinant KIT D4/D5; assay #4 (purified), 1 replicate. How it is done:
(§1) The binding affinity of the anti-KIT antibodies to the target antigen KIT Ig-like domains D4/D5 was assessed by direct binding ELISA. […] Bound antibody was detected with anti-human Ig-HRP followed by detection using TMB substrate.

The target in assay [5] is T2, recombinant KIT D4/D5. Kind of assay: direct binding ELISA, plate-coated recombinant KIT D4/D5; assay #3 (purified), mean of 2 replicates. How it is done:
as §1

For assay [6], the target named is T2, recombinant KIT D4/D5. As to the kind of experiment: direct binding ELISA, plate-coated recombinant KIT D4/D5; assay #1 (supernatant), mean of 4 replicates. How it is done:
as §1

Assay [7] concerns the target T2, recombinant KIT D4/D5. Kind of assay: direct binding ELISA, plate-coated recombinant KIT D4/D5; assay #2 (supernatant), mean of 5 replicates. How it is done: as §1
Assay [8] concerns the target T1, full-length, wild-type human KIT …. Kind of assay: cell-based or functional assay. This is another data set of the same source.
Another assay concerns the target T3, murine KIT (murine, UniProt P05532 25-527, limits assumed).
T3 sequence (looked up): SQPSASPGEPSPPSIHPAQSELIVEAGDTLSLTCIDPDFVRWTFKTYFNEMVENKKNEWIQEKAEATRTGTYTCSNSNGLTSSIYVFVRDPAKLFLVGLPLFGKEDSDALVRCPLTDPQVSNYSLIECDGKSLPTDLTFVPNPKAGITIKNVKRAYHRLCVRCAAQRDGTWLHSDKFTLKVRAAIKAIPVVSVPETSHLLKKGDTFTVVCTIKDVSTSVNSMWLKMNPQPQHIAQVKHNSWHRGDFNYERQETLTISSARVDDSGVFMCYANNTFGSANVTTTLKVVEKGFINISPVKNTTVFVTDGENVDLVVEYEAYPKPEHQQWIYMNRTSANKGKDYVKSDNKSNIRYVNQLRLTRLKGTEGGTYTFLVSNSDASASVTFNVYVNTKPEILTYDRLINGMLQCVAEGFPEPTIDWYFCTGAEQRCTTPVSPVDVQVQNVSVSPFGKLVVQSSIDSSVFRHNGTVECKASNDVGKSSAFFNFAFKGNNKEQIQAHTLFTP
Kind of assay: additional binding assays (format not described).

Assay [9] concerns the target T2, recombinant KIT D4/D5. Kind of assay: direct binding ELISA, plate-coated recombinant KIT D4/D5; assay #3 (purified). How it is done:
as §1

Assay [10] addresses T2, recombinant KIT D4/D5. Kind of assay: direct binding ELISA, plate-coated recombinant KIT D4/D5; assay #4 (purified). How it is done:
as §1

The target in assay [11] is T2, recombinant KIT D4/D5. Kind of assay: direct binding ELISA, plate-coated recombinant KIT D4/D5; assay #1 (supernatant). How it is done: as §1
For assay [12], the target named is T2, recombinant KIT D4/D5. As to the kind of experiment: direct binding ELISA, plate-coated recombinant KIT D4/D5; assay #2 (supernatant). How it is done: as §1

Substitutions are numbered along the chain they refer to.

T1 sequence (P10721 other isoform, or with tags, fused parts or gaps limits assumed): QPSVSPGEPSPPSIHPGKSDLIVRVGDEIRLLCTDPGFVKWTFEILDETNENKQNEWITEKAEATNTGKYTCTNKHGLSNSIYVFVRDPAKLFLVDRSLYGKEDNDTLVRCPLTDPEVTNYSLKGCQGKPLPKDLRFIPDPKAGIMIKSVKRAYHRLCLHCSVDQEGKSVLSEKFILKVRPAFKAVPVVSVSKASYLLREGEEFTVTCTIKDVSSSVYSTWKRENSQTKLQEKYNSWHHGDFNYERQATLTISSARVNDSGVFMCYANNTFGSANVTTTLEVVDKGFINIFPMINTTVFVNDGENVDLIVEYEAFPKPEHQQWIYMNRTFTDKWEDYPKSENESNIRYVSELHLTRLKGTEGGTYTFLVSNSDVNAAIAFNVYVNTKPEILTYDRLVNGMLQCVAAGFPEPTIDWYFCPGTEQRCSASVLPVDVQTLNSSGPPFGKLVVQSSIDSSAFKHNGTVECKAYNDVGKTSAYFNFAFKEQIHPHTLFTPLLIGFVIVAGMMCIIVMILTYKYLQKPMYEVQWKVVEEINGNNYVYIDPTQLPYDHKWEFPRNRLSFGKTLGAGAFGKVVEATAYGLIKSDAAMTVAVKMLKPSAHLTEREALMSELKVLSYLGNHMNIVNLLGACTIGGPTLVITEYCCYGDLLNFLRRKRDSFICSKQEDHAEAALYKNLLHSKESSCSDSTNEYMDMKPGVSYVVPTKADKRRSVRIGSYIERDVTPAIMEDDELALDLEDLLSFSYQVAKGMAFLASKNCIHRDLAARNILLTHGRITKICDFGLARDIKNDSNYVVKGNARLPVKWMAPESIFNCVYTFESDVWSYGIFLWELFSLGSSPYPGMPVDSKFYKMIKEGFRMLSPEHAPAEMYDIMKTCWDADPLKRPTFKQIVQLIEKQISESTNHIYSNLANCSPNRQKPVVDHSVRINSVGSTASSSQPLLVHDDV
T2 sequence (P10721 other isoform, or with tags, fused parts or gaps limits assumed): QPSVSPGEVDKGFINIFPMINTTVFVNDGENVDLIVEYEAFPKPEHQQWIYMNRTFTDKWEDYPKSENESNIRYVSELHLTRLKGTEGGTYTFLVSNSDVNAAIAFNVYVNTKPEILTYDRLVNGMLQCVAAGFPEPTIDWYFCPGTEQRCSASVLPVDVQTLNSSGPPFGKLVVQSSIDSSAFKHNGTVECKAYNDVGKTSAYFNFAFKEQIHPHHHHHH

B1: chimeric antibody 37C (antibody, V domains shown)
VH: QVQLKQSGAELVRPGASVKLSCKASGYTFTDYYINWVKQRPGQGLEWIARIYPGSGNTYYNEKFKGKATLTAEKSSSTAYMQLSSLTSEDSAVYFCARGVYYFDYWGQGTTLTVSA
VL: DIVMTQSQKFMSTSVGDRVSVTCKASQNVRTNVAWYQQKPGQSPKALIYSASYRYSGVPDRFTGSGSGTDFTLTISNVQSEDLADYFCQQYNSYPRTFGGGTKLEIK
notes: also called chimera of antibody 37M; chimera
On to B1, for which the “50% inhibition concentration (IC50), SCF-induced KIT tyrosine phosphorylation, cell-based phospho-KIT ELISA” value (“50% inhibition concentration (IC50)” for short) in assay [1] is about 0.344 nM. Besides, the EC50 in assay [2] is about 0.047 nM; with recombinant KIT D4/D5 [3] it was about 0.012 nM; with recombinant KIT D4/D5 [4], 0.568 nM; with recombinant KIT D4/D5 [5], 0.462 nM; in the assay with recombinant KIT D4/D5 [6] it was 0.381 nM; with recombinant KIT D4/D5 [7], 0.412 nM.

B2: Hum8 (antibody, V domains shown)
VH: QVQLVQSGAEVKKPGASVKLSCKASGYTFTDYYINWVRQAPGKGLEWIARIYPGSGNTYYNEKFKGRATLTADKSTSTAYMQLSSLRSEDTAVYFCARGVYYFDYWGQGTTVTVSS
VL: DIVMTQSPSSLSASVGDRVTITCKASQNVRTNVAWYQQKPGKAPKALIYSASYRYSGVPDRFTGSGSGTDFTLTISSLQPEDFADYFCQQYNSYPRTFGGGTKVEIK
For B2, the “50% inhibition concentration (IC50)” value in assay [1] was about 0.542 nM. The “Relative blocking activity, assay #3 (96-well): IC50 of inhibition of SCF-induced KIT phosphorylation, normalized to chimeric 37M antibody” value in assay [8] was 1.01 relative to chimeric 37M antibody. The “Relative blocking activity, assay #4 (96-well): IC50 of inhibition of SCF-induced KIT phosphorylation, normalized to chimeric 37M antibody” value in [8] was 1.12 relative to chimeric 37M antibody. For the same molecule, in the assay with murine KIT, the binding result was “no binding”. The results for the EC50 (in assay [2]; in the assay with recombinant KIT D4/D5 [3]) were about 0.083 nM and about 0.011 nM, respectively. Also, the Relative binding activity was 0.89 relative to chimeric antibody 37C (normalized EC50) in the assay with recombinant KIT D4/D5 [9], 0.75 relative to chimeric antibody 37C (normalized EC50) with recombinant KIT D4/D5 [10], 1.02 relative to chimeric antibody 37C (normalized EC50) in the assay with recombinant KIT D4/D5 [11] and 0.62 relative to chimeric antibody 37C (normalized EC50) with recombinant KIT D4/D5 [12].

B3: Hum4 (antibody, V domains shown)
VH: B2 VH with L20V, L70I, Q82E
VL: B2 VL with S10F, P80S
With B3, the “50% inhibition concentration (IC50)” value in [1] was about 0.47 nM. Further, in assay [8], the “Relative blocking activity, assay #2 (24-well): IC50 of inhibition of SCF-induced KIT phosphorylation, normalized to chimeric 37M antibody” value was 1.2 relative to chimeric 37M antibody. Also, the “Relative blocking activity, assay #4 (96-well): IC50 of inhibition of SCF-induced KIT phosphorylation, normalized to chimeric 37M antibody” value in assay [8] was 0.86 relative to chimeric 37M antibody. Moreover, the binding result in the assay with murine KIT was “no binding”. Besides, the figures for the EC50 (in assay [2]; with recombinant KIT D4/D5 [3]) were about 0.106 nM and about 0.0075 nM, respectively. In addition, the Relative binding activity with recombinant KIT D4/D5 [9] is 1.07 relative to chimeric antibody 37C (normalized EC50); in the assay with recombinant KIT D4/D5 [10] it was 0.83 relative to chimeric antibody 37C (normalized EC50); with recombinant KIT D4/D5 [12], 0.91 relative to chimeric antibody 37C (normalized EC50).

B4: Hum17 (antibody, V domains shown)
VH: B2 VH with R38K, D73E
VL: B2 VL with A46S, T63S, D85T, F87Y
On to B4, for which the “50% inhibition concentration (IC50)” value in assay [1] was about 0.51 nM. Moreover, the “Relative blocking activity, assay #2 (24-well): IC50 of inhibition of SCF-induced KIT phosphorylation, normalized to chimeric 37M antibody” value in assay [8] is 1.39 relative to chimeric 37M antibody. Besides, the “Relative blocking activity, assay #4 (96-well): IC50 of inhibition of SCF-induced KIT phosphorylation, normalized to chimeric 37M antibody” value in assay [8] was 1.07 relative to chimeric 37M antibody. In the assay with murine KIT, the binding result is “no binding”. For the same molecule, the EC50 is about 0.139 nM in [2] and about 0.0066 nM with recombinant KIT D4/D5 [3]. The Relative binding activity with recombinant KIT D4/D5 [9] was 0.98 relative to chimeric antibody 37C (normalized EC50); with recombinant KIT D4/D5 [10], 0.72 relative to chimeric antibody 37C (normalized EC50); with recombinant KIT D4/D5 [11] it was 1.17 relative to chimeric antibody 37C (normalized EC50); with recombinant KIT D4/D5 [12], 0.76 relative to chimeric antibody 37C (normalized EC50).

B5: Hum10 (antibody, V domains shown)
VH: B2 VH with L20V, A68V, L70I, Q82E
VL: B2 VL
With B5, the “50% inhibition concentration (IC50)” value in assay [1] is about 0.51 nM. In addition, the “Relative blocking activity, assay #2 (24-well): IC50 of inhibition of SCF-induced KIT phosphorylation, normalized to chimeric 37M antibody” value in [8] was 0.82 relative to chimeric 37M antibody. Further, in assay [8], the “Relative blocking activity, assay #4 (96-well): IC50 of inhibition of SCF-induced KIT phosphorylation, normalized to chimeric 37M antibody” value was 0.86 relative to chimeric 37M antibody. Further, the binding result in the assay with murine KIT is listed as “no binding”. Moreover, the EC50 is about 0.132 nM in assay [2] and about 0.023 nM in the assay with recombinant KIT D4/D5 [3]. Besides, the Relative binding activity with recombinant KIT D4/D5 [9] is 0.87 relative to chimeric antibody 37C (normalized EC50); with recombinant KIT D4/D5 [10] it was 0.72 relative to chimeric antibody 37C (normalized EC50); with recombinant KIT D4/D5 [11], 1.1 relative to chimeric antibody 37C (normalized EC50); with recombinant KIT D4/D5 [12] it was 0.88 relative to chimeric antibody 37C (normalized EC50).
